Molecular target: the molecule itself
Assay: cryo-EM structure

B1: full-length human SLC30A10 (natural protein, UniProt Q6XR72 1-485, looked up)
chain: MGRYSGKTCRLLFMLVLTVAFFVAELVSGYLGNSIALLSDSFNMLSDLISLCVGLSAGYIARRPTRGFSATYGYARAEVVGALSNAVFLTALCFTIFVEAVLRLARPERIDDPELVLIVGVLGLLVNVVGLLIFQDCAAWFACCLRGRSRRLQQRQQLAEGCVPGAFGGPQGAEDPRRAADPTAPGSDSAVTLRGTSVERKREKGATVFANVAGDSFNTQNEPEDMMKKEKKSEALNIRGVLLHVMGDALGSVVVVITAIIFYVLPLKSEDPCNWQCYIDPSLTVLMVIIILSSAFPLIKETAAILLQMVPKGVNMEELMSKLSAVPGISSVHEVHIWELVSGKIIATLHIKYPKDRGYQDASTKIREIFHHAGIHNVTIQFENVDLKEPLEQKDLLLLCNSPCISKGCAKQLCCPPGALPLAHVNGCAEHNGGPSLDTYGSDGLSRRDAREVAIEVSLDSCLSDHGQSLNKTQEDQCYVNRTHF
  stoichiometry N: 2

Source: article PMC12480533 (Nature Communications, 2025)
